# Test results as given in patent US12104181B2, “Compositions and methods for treating viral infections targeting TRIM7” (THE BOARD OF REGENTS OF THE UNIVERSITY OF TEXAS SYSTEM, priority 2021, dated 2024).
# Tested on: coxsackievirus B3 (CVB3-GFP)
# Assay type: cell-based
# Conditions: HeLa cells, replicate R1; for Percent Infected R1: GFP-positive cells within RFP-positive gate
Molecule,Percent Infected R1,Z score R1
"MARCH2: human RING type E3 ligase expressed from lentiviral vector (protein, UniProt Q9P0N8 1-246, looked up) E3 ubiquitin-protein ligase …: MTTGDCCHLPGSLCDCSGSPAFSKVVEATGLGPPQYVAQVTSRDGRLLSTVIRALDTPSDGPFCRICHEGANGECLLSPCGCTGTLGAVHKSCLEKWLSSSNTSYCELCHTEFAVEKRPRPLTEWLKDPGPRTEKRTLCCDMVCFLFITPLAAISGWLCLRGAQDHLRLHSQLEAVGLIALTIALFTIYVLWTLVSFRYHCQLYSEWRKTNQKVRLKIREADSPEGPQHSPLAAGLLKKVAEETPV",92.4%,0.05
"RNF152: human RING type E3 ligase expressed from lentiviral vector (protein, UniProt Q8N8N0 1-203, looked up, lentiviral expression, human RING type E3 ligase expressed from lentiviral vector) E3 ubiquitin-protein ligase …: METLSQDSLLECQICFNYYSPRRRPKLLDCKHTCCSVCLQQMRTSQKDVRCPWCRGVTKLPPGFSVSQLPDDPEVLAVIAIPHTSEHTPVFIKLPSNGCYMLPLPISKERALLPGDMGCRLLPGSQQKSVTVVTIPAEQQPLQGGAPQEAVEEEQDRRGVVKSSTWSGVCTVILVACVLVFLLGIVLHNMSCISKRFTVISCG",97.4%,0.11
"RNF121: human RING type E3 ligase expressed from lentiviral vector (protein, UniProt Q9H920 2-327, looked up) E3 ubiquitin ligase RNF121: AAVVEVEVGGGAAGERELDEVDMSDLSPEEQWRVEHARMHAKHRGHEAMHAEMVLILIATLVVAQLLLVQWKQRHPRSYNMVTLFQMWVVPLYFTVKLHWWRFLVIWILFSAVTAFVTFRATRKPLVQTTPRLVYKWFLLIYKISYATGIVGYMAVMFTLFGLNLLFKIKPEDAMDFGISLLFYGLYYGVLERDFAEMCADYMASTIGFYSESGMPTKHLSDSVCAVCGQQIFVDVSEEGIIENTYRLSCNHVFHEFCIRGWCIVGKKQTCPYCKEKVDLKRMFSNPWERPHVMYGQLLDWLRYLVAWQPVIIGVVQGINYILGLE",84.1%,−0.06
"RNF144A: human RING type E3 ligase expressed from lentiviral vector (protein, UniProt P50876 1-292, looked up) E3 ubiquitin-protein ligase …: MTTTRYRPTWDLALDPLVSCKLCLGEYPVEQMTTIAQCQCIFCTLCLKQYVELLIKEGLETAISCPDAACPKQGHLQENEIECMVAAEIMQRYKKLQFEREVLFDPCRTWCPASTCQAVCQLQDVGLQTPQPVQCKACRMEFCSTCKASWHPGQGCPETMPITFLPGETSAAFKMEEDDAPIKRCPKCKVYIERDEGCAQMMCKNCKHAFCWYCLESLDDDFLLIHYDKGPCRNKLGHSRASVIWHRTQVVGIFAGFGLLLLVASPFLLLATPFVLCCKCKCSKGDDDPLPT",97.7%,0.12
"MARCH1: human RING type E3 ligase expressed from lentiviral vector (protein, UniProt Q8TCQ1 1-289, looked up) E3 ubiquitin-protein ligase …: MLGWCEAIARNPHRIPNNTRTPEISGDLADASQTSTLNEKSPGRSASRSSNISKASSPTTGTAPRSQSRLSVCPSTQDICRICHCEGDEESPLITPCRCTGTLRFVHQSCLHQWIKSSDTRCCELCKYDFIMETKLKPLRKWEKLQMTTSERRKIFCSVTFHVIAITCVVWSLYVLIDRTAEEIKQGNDNGVLEWPFWTKLVVVAIGFTGGLVFMYVQCKVYVQLWRRLKAYNRVIFVQNCPDTAKKLEKNFSCNVNTDIKDAVVVPVPQTGANSLPSAEGGPPEVVSV",97.7%,0.12
"RNF151: human RING type E3 ligase expressed from lentiviral vector (protein, UniProt Q2KHN1 1-245, looked up) RING finger protein 151: MGGGYDLNLFASPPDSNFVCSVCHGVLKRPARLPCSHIFCKKCILRWLARQKTCPCCRKEVKRKKVVHMNKLRKTIGRLEVKCKNADAGCIVTCPLAHRKGHQDSCPFELTACPNEGCTSQVPRGTLAEHRQHCQQGSQQRCPLGCGATLDPAERARHNCYRELHNAWSVRQERRRPLLLSLLRRVRWLDQATSVVRRELAELSNFLEEDTALLEGAPQEEAEAAPEGNVGAEVVGEPRANIPCK",92.8%,0.05
"RNF8: human RING type E3 ligase expressed from lentiviral vector (protein, UniProt O76064 1-485, looked up, lentiviral expression, human RING type E3 ligase expressed from lentiviral vector) E3 ubiquitin-protein ligase …: MGEPGFFVTGDRAGGRSWCLRRVGMSAGWLLLEDGCEVTVGRGFGVTYQLVSKICPLMISRNHCVLKQNPEGQWTIMDNKSLNGVWLNRARLEPLRVYSIHQGDYIQLGVPLENKENAEYEYEVTEEDWETIYPCLSPKNDQMIEKNKELRTKRKFSLDELAGPGAEGPSNLKSKINKVSCESGQPVKSQGKGEVASTPSDNLDPKLTALEPSKTTGAPIYPGFPKVTEVHHEQKASNSSASQRSLQMFKVTMSRILRLKIQMQEKHEAVMNVKKQTQKGNSKKVVQMEQELQDLQSQLCAEQAQQQARVEQLEKTFQEEEQHLQGLEIAQGEKDLKQQLAQALQEHWALMEELNRSKKDFEAIIQAKNKELEQTKEEKEKMQAQKEEVLSHMNDVLENELQCIICSEYFIEAVTLNCAHSFCSYCINEWMKRKIECPICRKDIKSKTYSLVLDNCINKMVNNLSSEVKERRIVLIRERKAKRLF",82.8%,−0.07
"RNF166: human RING type E3 ligase expressed from lentiviral vector (protein, UniProt Q96A37 1-237, looked up, lentiviral expression, human RING type E3 ligase expressed from lentiviral vector) E3 ubiquitin-protein ligase …: MAMFRSLVASAQQRQPPAGPAGGDSGLEAQYTCPICLEVYHRPVAIGSCGHTFCGECLQPCLQVPSPLCPLCRLPFDPKKVDKATHVEKQLSSYKAPCRGCNKKVTLAKMRVHISSCLKVQEQMANCPKFVPVVPTSQPIPSNIPNRSTFACPYCGARNLDQQELVKHCVESHRSDPNRVVCPICSAMPWGDPSYKSANFLQHLLHRHKFSYDTFVDYSIDEEAAFQAALALSLSEN",94.5%,0.08
"RI NG1: human RING type E3 ligase expressed from lentiviral vector (protein, UniProt Q06587 1-406, looked up) E3 ubiquitin-protein ligase …: MTTPANAQNASKTWELSLYELHRTPQEAIMDGTEIAVSPRSLHSELMCPICLDMLKNTMTTKECLHRFCSDCIVTALRSGNKECPTCRKKLVSKRSLRPDPNFDALISKIYPSREEYEAHQDRVLIRLSRLHNQQALSSSIEEGLRMQAMHRAQRVRRPIPGSDQTTTMSGGEGEPGEGEGDGEDVSSDSAPDSAPGPAPKRPRGGGAGGSSVGTGGGGTGGVGGGAGSEDSGDRGGTLGGGTLGPPSPPGAPSPPEPGGEIELVFRPHPLLVEKGEYCQTRYVKTTGNATVDHLSKYLALRIALERRQQQEAGEPGGPGGGASDTGGPDGCGGEGGGAGGGDGPEEPALPSLEGVSEKQYTIYIAPGGGAFTTLNGSLTLELVNEKFWKVSRPLELCYAPTKDPK",92.9%,0.05
"RNF14: human RING type E3 ligase expressed from lentiviral vector (protein, UniProt Q9UBS8 1-474, looked up, lentiviral expression, human RING type E3 ligase expressed from lentiviral vector) E3 ubiquitin-protein ligase …: MSSEDREAQEDELLALASIYDGDEFRKAESVQGGETRIYLDLPQNFKIFVSGNSNECLQNSGFEYTICFLPPLVLNFELPPDYPSSSPPSFTLSGKWLSPTQLSALCKHLDNLWEEHRGSVVLFAWMQFLKEETLAYLNIVSPFELKIGSQKKVQRRTAQASPNTELDFGGAAGSDVDQEEIVDERAVQDVESLSNLIQEILDFDQAQQIKCFNSKLFLCSICFCEKLGSECMYFLECRHVYCKACLKDYFEIQIRDGQVQCLNCPEPKCPSVATPGQVKELVEAELFARYDRLLLQSSLDLMADVVYCPRPCCQLPVMQEPGCTMGICSSCNFAFCTLCRLTYHGVSPCKVTAEKLMDLRNEYLQADEANKRLLDQRYGKRVIQKALEEMESKEWLEKNSKSCPCCGTPIEKLDGCNKMTCTGCMQYFCWICMGSLSRANPYKHFNDPGSPCFNRLFYAVDVDDDIWEDEVED",95.5%,0.09
"RNF150: human RING type E3 ligase expressed from lentiviral vector (protein, UniProt Q9ULK6 35-438, looked up) RING finger protein 150: EKEEWYTAFVNITYAEPAPDPGAGAAGGGGAELHTEKTECGRYGEHSPKQDARGEVVMASSAHDRLACDPNTKFAAPTRGKNWIALIPKGNCTYRDKIRNAFLQNASAVVIFNVGSNTNETITMPHAGVEDIVAIMIPEPKGKEIVSLLERNITVTMYITIGTRNLQKYVSRTSVVFVSISFIVLMIISLAWLVFYYIQRFRYANARDRNQRRLGDAAKKAISKLQIRTIKKGDKETESDFDNCAVCIEGYKPNDVVRILPCRHLFHKSCVDPWLLDHRTCPMCKMNILKALGIPPNADCMDDLPTDFEGSLGGPPTNQITGASDTTVNESSVTLDPAVRTVGALQVVQDTDPIPQEGDVIFTTNSEQEPAVSSDSDISLIMAMEVGLSDVELSTDQDCEEVKS",91.1%,0.03
"RNF180: human RING type E3 ligase expressed from lentiviral vector (protein, UniProt Q86T96 1-592, looked up, lentiviral expression, human RING type E3 ligase expressed from lentiviral vector) E3 ubiquitin-protein ligase …: MKRSKELITKNHSQEETSILRCWKCRKCIASSGCFMEYLENQVIKDKDDSVDAQNICHVWHMNVEALPEWISCLIQKAQWTVGKLNCPFCGARLGGFNFVSTPKCSCGQLAAVHLSKSRTDYQPTQAGRLMRPSVKYLSHPRVQSGCDKEALLTGGGSENRNHRLLNMARNNNDPGRLTEALCLEVRPTYFEMKNEKLLSKASEPKYQLFVPQLVTGRCATRAFHRKSHSLDLNISEKLTLLPTLYEIHSKTTAYSRLNETQPIDLSGLPLQSSKNSYSFQNPSSFDPSMLLQRFSVAPHETQTQRGGEFQCGLEAASVYSDHTNTNNLTFLMDLPSAGRSMPEASDQEEHLSPLDFLHSANFSLGSINQRLNKRERSKLKNLRRKQRRRERWLQKQGKYSGVGLLDHMTLNNEMSTDEDNEYAEEKDSYICAVCLDVYFNPYMCYPCHHIFCEPCLRTLAKDNPSSTPCPLCRTIISRVFFQTELNNATKTFFTKEYLKIKQSFQKSNSAKWPLPSCRKAFHLFGGFRRHAAPVTRRQFPHGAHRMDYLHFEDDSRGWWFDMDMVIIYIYSVNWVIGFIVFCFLCYFFFPF",93.2%,0.06
